{
  "source": "patent US20220249633A1",
  "target": "HLA-A*24 (human)",
  "assay": "UV-exchange ELISA, exchange yield grade",
  "data": [
    {"binder": "QYLELAHSL", "note": "[… (SEQ ID NO: 366)]", "values": [
      {"measurement": "peptide exchange yield", "result": "50 to 75", "unit": "%"}
    ]},
    {"binder": "QYIEELQKF", "note": "[… (SEQ ID NO: 385)]", "values": [
      {"measurement": "peptide exchange yield", "result": "50 to 75", "unit": "%"}
    ]},
    {"binder": "VYTHEVVTL", "note": "[… (SEQ ID NO: 369)]", "values": [
      {"measurement": "peptide exchange yield", "result": "50 to 75", "unit": "%"}
    ]},
    {"binder": "KYQNVKHNL", "note": "[… (SEQ ID NO: 368)]", "values": [
      {"measurement": "peptide exchange yield", "result": "50 to 75", "unit": "%"}
    ]},
    {"binder": "YYSEVPVKL", "note": "[… (SEQ ID NO: 358)]", "values": [
      {"measurement": "peptide exchange yield", "result": "50 to 75", "unit": "%"}
    ]},
    {"binder": "QYTPHSHQF", "note": "[… (SEQ ID NO: 377)]", "values": [
      {"measurement": "peptide exchange yield", "result": "50 to 75", "unit": "%"}
    ]},
    {"binder": "IYGEKTYAF", "note": "[… (SEQ ID NO: 388)]", "values": [
      {"measurement": "peptide exchange yield", "result": "50 to 75", "unit": "%"}
    ]},
    {"binder": "VYIAELEKI", "note": "[… (SEQ ID NO: 378)]", "values": [
      {"measurement": "peptide exchange yield", "result": "50 to 75", "unit": "%"}
    ]},
    {"binder": "QFITSTNTF", "note": "[… (SEQ ID NO: 357)]", "values": [
      {"measurement": "peptide exchange yield", "result": "> 75", "unit": "%"}
    ]},
    {"binder": "VFSPDGHLF", "note": "[… (SEQ ID NO: 360)]", "values": [
      {"measurement": "peptide exchange yield", "result": "50 to 75", "unit": "%"}
    ]},
    {"binder": "VYTPVASRQSL", "note": "[… (SEQ ID NO: 376)]", "values": [
      {"measurement": "peptide exchange yield", "result": "50 to 75", "unit": "%"}
    ]},
    {"binder": "NYGVLHVTF", "note": "[… (SEQ ID NO: 359)]", "values": [
      {"measurement": "peptide exchange yield", "result": "> 75", "unit": "%"}
    ]},
    {"binder": "NYMPGQLTI", "note": "[… (SEQ ID NO: 356)]", "values": [
      {"measurement": "peptide exchange yield", "result": "> 75", "unit": "%"}
    ]},
    {"binder": "RFIGIPNQF", "note": "[… (SEQ ID NO: 370)]", "values": [
      {"measurement": "peptide exchange yield", "result": "50 to 75", "unit": "%"}
    ]},
    {"binder": "RYFDVGLHNF", "note": "[… (SEQ ID NO: 384)]", "values": [
      {"measurement": "peptide exchange yield", "result": "50 to 75", "unit": "%"}
    ]},
    {"binder": "VYTGIDHHW", "note": "[… (SEQ ID NO: 380)]", "values": [
      {"measurement": "peptide exchange yield", "result": "> 75", "unit": "%"}
    ]},
    {"binder": "TFSDVEAHF", "note": "[… (SEQ ID NO: 386)]", "values": [
      {"measurement": "peptide exchange yield", "result": "50 to 75", "unit": "%"}
    ]},
    {"binder": "LYQDHMQYI", "note": "[… (SEQ ID NO: 367)]", "values": [
      {"measurement": "peptide exchange yield", "result": "20 to 49", "unit": "%"}
    ]},
    {"binder": "KYPASSSVF", "note": "[… (SEQ ID NO: 381)]", "values": [
      {"measurement": "peptide exchange yield", "result": "50 to 75", "unit": "%"}
    ]},
    {"binder": "RYKPGEPITF", "note": "[… (SEQ ID NO: 383)]", "values": [
      {"measurement": "peptide exchange yield", "result": "50 to 75", "unit": "%"}
    ]},
    {"binder": "KYTDYILKI", "note": "[… (SEQ ID NO: 375)]", "values": [
      {"measurement": "peptide exchange yield", "result": "50 to 75", "unit": "%"}
    ]},
    {"binder": "AYSHLRYVF", "note": "[… (SEQ ID NO: 371)]", "values": [
      {"measurement": "peptide exchange yield", "result": "20 to 49", "unit": "%"}
    ]},
    {"binder": "TYADIGGLDNQI", "note": "[… (SEQ ID NO: 361)]", "values": [
      {"measurement": "peptide exchange yield", "result": "50 to 75", "unit": "%"}
    ]},
    {"binder": "VFIDHPVHL", "note": "[… (SEQ ID NO: 365)]", "values": [
      {"measurement": "peptide exchange yield", "result": "> 75", "unit": "%"}
    ]},
    {"binder": "KYTEKLEEI", "note": "[… (SEQ ID NO: 387)]", "values": [
      {"measurement": "peptide exchange yield", "result": "50 to 75", "unit": "%"}
    ]},
    {"binder": "AYLPPLQQVF", "note": "[… (SEQ ID NO: 382)]", "values": [
      {"measurement": "peptide exchange yield", "result": "50 to 75", "unit": "%"}
    ]},
    {"binder": "IYVTGGHLF", "note": "[… (SEQ ID NO: 355)]", "values": [
      {"measurement": "peptide exchange yield", "result": "50 to 75", "unit": "%"}
    ]},
    {"binder": "VFLPRVTEL", "note": "[… (SEQ ID NO: 374)]", "values": [
      {"measurement": "peptide exchange yield", "result": "20 to 49", "unit": "%"}
    ]},
    {"binder": "VYVIEPHSMEF", "note": "[… (SEQ ID NO: 372)]", "values": [
      {"measurement": "peptide exchange yield", "result": "50 to 75", "unit": "%"}
    ]},
    {"binder": "GYISNGELF", "note": "[… (SEQ ID NO: 373)]", "values": [
      {"measurement": "peptide exchange yield", "result": "50 to 75", "unit": "%"}
    ]},
    {"binder": "SYAELGTTI", "note": "[… (SEQ ID NO: 363)]", "values": [
      {"measurement": "peptide exchange yield", "result": "20 to 49", "unit": "%"}
    ]},
    {"binder": "KYLNENQLSQL", "note": "[… (SEQ ID NO: 364)]", "values": [
      {"measurement": "peptide exchange yield", "result": "50 to 75", "unit": "%"}
    ]},
    {"binder": "VYNYAEQTL", "note": "[… (SEQ ID NO: 362)]", "values": [
      {"measurement": "peptide exchange yield", "result": "20 to 49", "unit": "%"}
    ]},
    {"binder": "VFIAQGYTL", "note": "[… (SEQ ID NO: 379)]", "values": [
      {"measurement": "peptide exchange yield", "result": "> 75", "unit": "%"}
    ]}
  ]
}
